We go through five molecules from paper PMC11009412, “Pathogenic mutations of human phosphorylation sites affect protein–protein interactions” (Nature Communications, 2024).

In this experiment the test system is BirA*-FLAG-GATAD1 variants in Flp-In-293 cells. Nature of the experiment: BioID proximity labelling of full-length GATAD1 variants (SILAC). The following applies: GATAD1 WT vs S102P, significant proteins only; for Log2_Ratio.H.L.normalized.WT_S102P_forward: forward experiment (label swap performed, sign inverted against the H/L ratio); for Log2_Ratio.H.L.normalized.WT_S102P_forward / Log2_Ratio.H.L.normalized.WT_S102P_reverse: log2 of normalized H/L ratio; for Ratio.H.L.normalized.WT_S102P_forward: forward experiment; for Log2_Ratio.H.L.normalized.WT_S102P_reverse / Ratio.H.L.normalized.WT_S102P_reverse: reverse experiment. The experiment is classed as cell-based, human. The text has this: The GATAD1 gene variants were ordered in a pTwist ENTR Kozak vector from Twist Bioscience. The genes were then transferred to a pDEST_pcDNA5_BirA_FLAG_Nterm vector[97] using the Gateway Clonase II system (Thermo Fisher Scientific). The resulting vectors, pEXPR_GATAD1-WT_N-term_BirA_FLAG, pEXPR_GATAD1-S102P_N-term_BirA_FLAG, pEXPR_GATAD1-S102D_N-term_BirA_FLAG, and pEXPR_GATAD1-S102A_N-term_BirA_FLAG, were used to generate tetracycline-inducible stable Flp-In^TM-293 T-REx cells. A 6-well plate was co-transfected with 0.5 µg of the pEXPR plasmid and 1 µg of the pOG44 Flp-recombinase expression vector (Thermo Fisher Scientific) using 4.5 µg of PEI (Polysciences) as a transfection reagent. The following day, the cells were trypsinized and transferred to a 10 cm dish containing DMEM supplemented with 10% FCS and 200 µg/ml hygromycin B (Invivogen) for selection. The cells were cultured for approximately 18 days with media exchange every 3 days until visible colonies were observed. After around 18 days, the colonies were trypsinized and transferred to another 10 cm dish for further characterization and experiments.
Stable Flp-In^TM-293 cell lines expressing GATAD1 variants were cultured using SILAC light (Lys0, Arg0) and SILAC heavy (Lys8, Arg10) media, as explained in the cell culture section. After full labeling, cells were split into 15 cm dishes and were treated with 1 μg/mL tetracycline for 24 h to induce the expression of GATAD1. After the induction period, cells were incubated with 50 μM biotin overnight for proximity biotinylation. As a control, wild-type GATAD1 cells, without biotin or tetracycline addition, were used. Samples were multiplexed, as shown in Supplementary Fig. 41A with both forward and reverse label swap (n = 2). Cells were then lysed in lysis buffer (50 mM Tris-HCl pH 7.5, 150 mM NaCl, 1% Triton X-100, 1 mM EDTA, 1 mM EGTA, 0.1% SDS) with freshly added protease inhibitors and 1% sodium deoxycholate. To digest the excess DNA, 1 μl of Benzonase was added, and the samples were incubated for 20 min at 37 °C. Biotinylated proteins were enriched for 3 h at 4 °C using streptavidin-sepharose beads (GE Cat# 17-5113-01). Beads were pre-washed twice with 0.01% BSA and twice with lysis buffer. After enrichment, the beads were washed one time with lysis buffer, two times with washing buffer (50 mM HEPES-KOH pH 8.0, 100 mM KCl, 10% glycerol, 2 mM EDTA, 0.1% NP-40), and six times with 50 mM ammonium bicarbonate. Beads were resuspended in ammonium bicarbonate, and an on-bead protein digest with 1 μg of trypsin followed overnight. The next day, the digested proteins were transferred to a fresh tube and were incubated with 10 mM DTT for 30 min at 37 °C and with 55 mM iodoacetamide for 20 min at 37 °C in the dark. Samples were desalted with StageTips.
Peptides were separated using reversed-phase liquid chromatography (EASY nLC II 1200, Thermo Fisher Scientific) with self-made C18 microcolumns (20 cm long) packed with ReproSil-Pur C18-AQ 1.9 μm resin (Dr. Maisch, cat# r119.aq.0001). The chromatography system was coupled online to the electrospray ion source (Proxeon) of an Orbitrap Exploris 480 mass spectrometer (Thermo Fisher Scientific). The mobile phase consisted of buffer A (0.1% formic acid and 5% acetonitrile) and buffer B (0.1% formic acid and 80% acetonitrile). Peptides were eluted using a gradient with increasing concentrations of buffer B over 110 minutes, at a flow rate of 250 nl/min. Mass spectrometry data was acquired in data-dependent mode with settings for one full scan (resolution: 60,000; m/z range: 350–1600; normalized AGC target: 300%; maximum injection time: 10 ms), followed by top 20 MS/MS scans using higher-energy collisional dissociation (resolution: 15,000; m/z range: 200–2000; normalized AGC target: 100%; maximum injection time: 120 ms; isolation width: 1.3 m/z; normalized collision energy: 28%).
Raw files were analyzed with MaxQuant, version 2.0.3.0. […]

B1: PPP1R10 (protein, UniProt Q96QC0 1-940, looked up)
Serine/threonine-protein …: MGSGPIDPKELLKGLDSFLNRDGEVKSVDGISKIFSLMKEARKMVSRCTYLNILLQTRSPEILVKFIDVGGYKLLNNWLTYSKTTNNIPLLQQILLTLQHLPLTVDHLKQNNTAKLVKQLSKSSEDEELRKLASVLVSDWMAVIRSQSSTQPAEKDKKKRKDEGKSRTTLPERPLTEVKAETRAEEAPEKKREKPKSLRTTAPSHAKFRSTGLELETPSLVPVKKNASTVVVSDKYNLKPIPLKRQSNVAAPGDATPPAEKKYKPLNTTPNATKEIKVKIIPPQPMEGLGFLDALNSAPVPGIKIKKKKKVLSPTAAKPSPFEGKTSTEPSTAKPSSPEPAPPSEAMDADRPGTPVPPVEVPELMDTASLEPGALDAKPVESPGDPNQLTRKGRKRKSVTWPEEGKLREYFYFELDETERVNVNKIKDFGEAAKREILSDRHAFETARRLSHDNMEEKVPWVCPRPLVLPSPLVTPGSNSQERYIQAEREKGILQELFLNKESPHEPDPEPYEPIPPKLIPLDEECSMDETPYVETLEPGGSGGSPDGAGGSKLPPVLANLMGSMGAGKGPQGPGGGGINVQEILTSIMGSPNSHPSEELLKQPDYSDKIKQMLVPHGLLGPGPIANGFPPGGPGGPKGMQHFPPGPGGPMPGPHGGPGGPVGPRLLGPPPPPRGGDPFWDGPGDPMRGGPMRGGPGPGPGPYHRGRGGRGGNEPPPPPPPFRGARGGRSGGGPPNGRGGPGGGMVGGGGHRPHEGPGGGMGNSSGHRPHEGPGGGMGSGHRPHEGPGGSMGGGGGHRPHEGPGGGISGGSGHRPHEGPGGGMGAGGGHRPHEGPGGSMGGSGGHRPHEGPGHGGPHGHRPHDVPGHRGHDHRGPPPHEHRGHDGPGHGGGGHRGHDGGHSHGGDMSNRPVCRHFMMKGNCRYENNCAFYHPGVNGPPLP
For B1, the Log2_Ratio.H.L.normalized.WT_S102P_forward was 1.288, the Ratio.H.L.normalized.WT_S102P_forward is reported as 0.4096, the Log2_Ratio.H.L.normalized.WT_S102P_reverse was 1.038 and the Ratio.H.L.normalized.WT_S102P_reverse is on record as 2.0533.

B2: NOL8 (protein, UniProt Q76FK4 1-1167, looked up)
Nucleolar protein 8: MKVNRETKRLYVGGLSQDISEADLQNQFSRFGEVSDVEIITRKDDQGNPQKVFAYINISVAEADLKKCMSVLNKTKWKGGTLQIQLAKESFLHRLAQEREAAKAKKEESTTGNANLLEKTGGVDFHMKAVPGTEVPGHKNWVVSKFGRVLPVLHLKNQHKRKIIKYDPSKYCHNLKKIGEDFSNTIPISSLTWELEGGNDPMSKKRRGEFSDFHGPPKKIIKVQKDESSTGSLAMSTRPRRVIERPPLTQQQAAQKRTCDSITPSKSSPVPVSDTQKLKNLPFKTSGLETAKKRNSISDDDTDSEDELRMMIAKEENLQRTTQPSINESESDPFEVVRDDFKSGVHKLHSLIGLGIKNRVSCHDSDDDIMRNDREYDSGDTDEIIAMKKNVAKVKNSTEFSQMEKSTKKTSFKNRENCELSDHCIKLQKRKSNVESALSHGLKSLNRKSPSHSSSSEDADSASELADSEGGEEYNAMMKNCLRVNLTLADLEQLAGSDLKVPNEDTKSDGPETTTQCKFDRGSKSPKTPTGLRRGRQCIRPAEIVASLLEGEENTCGKQKPKENNLKPKFQAFKGVGCLYEKESMKKSLKDSVASNNKDQNSMKHEDPSIISMEDGSPYVNGSLGEVTPCQHAKKANGPNYIQPQKRQTTFESQDRKAVSPSSSEKRSKNPISRPLEGKKSLSLSAKTHNIGFDKDSCHSTTKTEASQEERSDSSGLTSLKKSPKVSSKDTREIKTDFSLSISNSSDVSAKDKHAEDNEKRLAALEARQKAKEVQKKLVHNALANLDGHPEDKPTHIIFGSDSECETEETSTQEQSHPGEEWVKESMGKTSGKLFDSSDDDESDSEDDSNRFKIKPQFEGRAGQKLMDLQSHFGTDDRFRMDSRFLETDSEEEQEEVNEKKTAEEEELAEEKKKALNVVQSVLQINLSNSTNRGSVAAKKFKDIIHYDPTKQDHATYERKRDDKPKESKAKRKKKREEAEKLPEVSKEMYYNIAMDLKEIFQTTKYTSEKEEGTPWNEDCGKEKPEEIQDPAALTSDAEQPSGFTFSFFDSDTKDIKEETYRVETVKPGKIVWQEDPRLQDSSSEEEDVTEETDHRNSSPGEASLLEKETTRFFFFSKNDERLQGSDLFWRGVGSNMSRNSWEARTTNLRMDCRKKHKDAKRKMKPK
In the case of B2, the Log2_Ratio.H.L.normalized.WT_S102P_forward is listed as 1.703, the Ratio.H.L.normalized.WT_S102P_forward is given as 0.3071, the Log2_Ratio.H.L.normalized.WT_S102P_reverse is 1.269 and the Ratio.H.L.normalized.WT_S102P_reverse came out at 2.4103.

B3: NACC1 (protein, UniProt Q96RE7 1-527, looked up)
Nucleus accumbens-associated …: MAQTLQMEIPNFGNSILECLNEQRLQGLYCDVSVVVKGHAFKAHRAVLAASSSYFRDLFNNSRSAVVELPAAVQPQSFQQILSFCYTGRLSMNVGDQFLLMYTAGFLQIQEIMEKGTEFFLKVSSPSCDSQGLHAEEAPSSEPQSPVAQTSGWPACSTPLPLVSRVKTEQQESDSVQCMPVAKRLWDSGQKEAGGGGNGSRKMAKFSTPDLAANRPHQPPPPQQAPVVAAAQPAVAAGAGQPAGGVAAAGGVVSGPSTSERTSPGTSSAYTSDSPGSYHNEEDEEEDGGEEGMDEQYRQICNMYTMYSMMNVGQTAEKVEALPEQVAPESRNRIRVRQDLASLPAELINQIGNRCHPKLYDEGDPSEKLELVTGTNVYITRAQLMNCHVSAGTRHKVLLRRLLASFFDRNTLANSCGTGIRSSTNDPRRKPLDSRVLHAVKYYCQNFAPNFKESEMNAIAADMCTNARRVVRKSWMPKVKVLKAEDDAYTTFISETGKIEPDMMGVEHGFETASHEGEAGPSAEALQ
With B3, the Log2_Ratio.H.L.normalized.WT_S102P_forward is 1.531, the Ratio.H.L.normalized.WT_S102P_forward stood at 0.346, the Log2_Ratio.H.L.normalized.WT_S102P_reverse is 1.188 and the Ratio.H.L.normalized.WT_S102P_reverse turned out to be 2.2785.

B4: SUGP1 (protein, UniProt Q8IWZ8 1-645, looked up)
SURP and G-patch …: MSLKMDNRDVAGKANRWFGVAPPKSGKMNMNILHQEELIAQKKREIEAKMEQKAKQNQVASPQPPHPGEITNAHNSSCISNKFANDGSFLQQFLKLQKAQTSTDAPTSAPSAPPSTPTPSAGKRSLLISRRTGLGLASLPGPVKSYSHAKQLPVAHRPSVFQSPDEDEEEDYEQWLEIKVSPPEGAETRKVIEKLARFVAEGGPELEKVAMEDYKDNPAFAFLHDKNSREFLYYRKKVAEIRKEAQKSQAASQKVSPPEDEEVKNLAEKLARFIADGGPEVETIALQNNRENQAFSFLYEPNSQGYKYYRQKLEEFRKAKASSTGSFTAPDPGLKRKSPPEALSGSLPPATTCPASSTPAPTIIPAPAAPGKPASAATVKRKRKSRWGPEEDKVELPPAELVQRDVDASPSPLSVQDLKGLGYEKGKPVGLVGVTELSDAQKKQLKEQQEMQQMYDMIMQHKRAMQDMQLLWEKAVQQHQHGYDSDEEVDSELGTWEHQLRRMEMDKTREWAEQLTKMGRGKHFIGDFLPPDELEKFMETFKALKEGREPDYSEYKEFKLTVENIGYQMLMKMGWKEGEGLGSEGQGIKNPVNKGTTTVDGAGFGIDRPAELSKEDDEYEAFRKRMMLAYRFRPNPLNNPRRPYY
Regarding B4, the Log2_Ratio.H.L.normalized.WT_S102P_forward is recorded as 1.6946, the Ratio.H.L.normalized.WT_S102P_forward is listed as 0.3089, the Log2_Ratio.H.L.normalized.WT_S102P_reverse turned out to be 1.162 and the Ratio.H.L.normalized.WT_S102P_reverse turned out to be 2.2378.

B5: C19orf43 (protein, UniProt Q9BQ61 1-176, looked up)
Telomerase RNA component …: MAARGRRAEPQGREAPGPAGGGGGGSRWAESGSGTSPESGDEEVSGAGSSPVSGGVNLFANDGSFLELFKRKMEEEQRQRQEEPPPGPQRPDQSAAAAGPGDPKRKGGPGSTLSFVGKRRGGNKLALKTGIVAKKQKTEDEVLTSKGDAWAKYMAEVKKYKAHQCGDDDKTRPLVK
B5: the Log2_Ratio.H.L.normalized.WT_S102P_forward was 2.125, the Ratio.H.L.normalized.WT_S102P_forward is on record as 0.2293, the Log2_Ratio.H.L.normalized.WT_S102P_reverse came to 1.257 and the Ratio.H.L.normalized.WT_S102P_reverse amounted to 2.3903.
